Assay in all cases: ELISA
The target in test [1] is HLA-DR (DRA1*01:01 / DRB1*12:01), soluble knob-into-hole Fc heterodimer (human).
The target of test [2] is HLA-DR (DRA1*01:01 / DRB1*15:02), soluble knob-into-hole Fc heterodimer (human).
In test [3] the target is HLA-DR (DRA1*01:01 / DRB1*13:01), soluble knob-into-hole Fc heterodimer (human).
The target of test [4] is HLA-DR (DRA1*01:01 / DRB1*07:01), soluble knob-into-hole Fc heterodimer (human).
Test [5] has as its target HLA-DR (DRA1*01:01 / DRB1*04:06), soluble knob-into-hole Fc heterodimer (human).
For test [6], the target named is HLA-DR (DRA1*01:01 / DRB1*14:54), soluble knob-into-hole Fc heterodimer (human).
Test [7] concerns the target HLA-DR (DRA1*01:01 / DRB1*03:01), soluble knob-into-hole Fc heterodimer (human).
Test [8] addresses HLA-DR (DRA1*01:01 / DRB1*15:01), soluble knob-into-hole Fc heterodimer (human).
The target in test [9] is HLA-DR (DRA1*01:01 / DRB1*04:04), soluble knob-into-hole Fc heterodimer (human).
Test [10] has as its target HLA-DR (DRA1*01:01 / DRB1*11:04), soluble knob-into-hole Fc heterodimer (human).
Test [11] has as its target HLA-DR (DRA1*01:01 / DRB1*04:03), soluble knob-into-hole Fc heterodimer (human).
The target in test [12] is HLA-DR (DRA1*01:01 / DRB1*01:01), soluble knob-into-hole Fc heterodimer (human).
Test [13] deals with HLA-DR (DRA1*01:01 / DRB1*13:02), soluble knob-into-hole Fc heterodimer (human).
For test [14], the target named is HLA-DR (DRA1*01:01 / DRB1*04:01), soluble knob-into-hole Fc heterodimer (human).
Test [15] concerns the target HLA-DR (DRA1*01:01 / DRB1*10:01), soluble knob-into-hole Fc heterodimer (human).
The target in test [16] is HLA-DR (DRA1*01:01 / DRB1*04:05), soluble knob-into-hole Fc heterodimer (human).
Test [17] concerns the target HLA-DR (DRA1*01:01 / DRB1*16:02), soluble knob-into-hole Fc heterodimer (human).
Test [18] concerns the target HLA-DR (DRA1*01:01 / DRB1*15:03), soluble knob-into-hole Fc heterodimer (human).
Test [19] concerns the target HLA-DR (DRA1*01:01 / DRB1*11:01), soluble knob-into-hole Fc heterodimer (human).
The target of test [20] is HLA-DR (DRA1*01:01 / DRB1*01:02), soluble knob-into-hole Fc heterodimer (human).
The target in test [21] is HLA-DR (DRA1*01:01 / DRB1*14:01), soluble knob-into-hole Fc heterodimer (human).
The target of test [22] is HLA-DR (DRA1*01:01 / DRB1*04:07), soluble knob-into-hole Fc heterodimer (human).
Test [23] deals with HLA-DR (DRA1*01:01 / DRB1*12:02), soluble knob-into-hole Fc heterodimer (human).
Test [24] addresses HLA-DR (DRA1*01:01 / DRB1*09:01), soluble knob-into-hole Fc heterodimer (human).

Usually Ki stands for a measure of affinity in units of concentration, obtained from inhibition or displacement. Low values mean higher affinity, high ones lower affinity. Regarding KPVSKMRMATPLLMQALPM [human CLIP peptide, unlabelled competitor], the Ki came to 37.8 nM in test [1]; 23.1 nM in [2]; 350 nM in [3]; 6.87 nM in [4]; 8.27 nM in test [5]; 9.1 nM in test [6]. Moreover, the Ki was 23.9 nM in [7]; 6.31 nM in test [8]; 7.75 nM in test [9]; 2.92 nM in test [10]; 5.96 nM in test [11]; 6.04 nM in test [12]. Besides, the inhibition constant Ki in test [13] is 4470 nM; in test [14], 6.46 nM; in test [15] it was 13.3 nM; in test [16] it was 41.9 nM; in [17], 47 nM; in test [18] it was 11.1 nM. In addition, the Ki is 25.8 nM in test [19]; 5.52 nM in [20]; 67 nM in test [21]; 5.25 nM in [22]; 3.68 nM in test [23]; 11 nM in [24].
